Target: Aβ42 wild-type (UniProt P05067)
Test: fluorescence correlation spectroscopy (FCS); oligomers formed from S8C-Alexa488 and WT Aβ42 monomers 1:1.5 (labeled/unlabeled), about 10 μM total, 37 °C, stopped at t1/2; fibrils removed by centrifugation, oligomeric fraction isolated on Superdex 75; measured alone (three replicates) or with unlabeled WT fibrils (six replicates) 3-7 min after start, 37 °C, 20 mM sodium phosphate, 0.2 mM EDTA, pH 8.0; three-component fit (free dye, monomer, oligomer)

Alexa-488-labeled Aβ42-S8C (peptide)
oligomer dissociation half-life (in the presence of unlabeled WT fibrils): < 7 min | stoichiometry N: 37 monomers
